{"source": "paper PMC9610538", "about": "“Trihelix Transcriptional Factor GhGT26 of Cotton Enhances Salinity Tolerance in Arabidopsis”", "binders": {"B1": {"name": "Site1-type (GT-3a) (dsDNA)", "DNA 1": "GCGTTACCGTTACCGTTACCAA", "DNA 2": "TTGGTAACGGTAACGGTAACGC"}, "B2": {"name": "MRE3 (dsDNA)", "DNA 1": "TCTAACCTACTAACCTACTAACCTACCA", "DNA 2": "TGGTAGGTTAGTAGGTTAGTAGGTTAGA"}, "B3": {"name": "MRE4 (dsDNA)", "DNA 1": "TATCTCACCTCTCACCTCTCACCGT", "DNA 2": "ACGGTGAGAGGTGAGAGGTGAGATA"}}}
{"target": "T1, GhGT26 (GST fusion) (Gossypium hirsutum, UniProt A0A8J9W0A6 1-391)", "T1 sequence": "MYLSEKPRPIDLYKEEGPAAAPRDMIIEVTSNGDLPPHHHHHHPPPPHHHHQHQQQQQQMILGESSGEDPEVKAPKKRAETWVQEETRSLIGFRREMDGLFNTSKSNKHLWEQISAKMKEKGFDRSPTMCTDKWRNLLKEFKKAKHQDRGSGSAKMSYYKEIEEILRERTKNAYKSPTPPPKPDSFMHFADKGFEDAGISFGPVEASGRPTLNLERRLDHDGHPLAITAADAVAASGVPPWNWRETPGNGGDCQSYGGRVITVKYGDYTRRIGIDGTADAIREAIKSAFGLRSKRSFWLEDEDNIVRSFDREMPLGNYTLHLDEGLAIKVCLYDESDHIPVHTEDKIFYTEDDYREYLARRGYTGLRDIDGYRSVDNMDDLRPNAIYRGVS", "test": "EMSA; signal dramatically reduced by unlabeled competitor; Oligos annealed in 50 mM NaCl (70 °C 5 min, then room temperature); EMSA binding buffer, pH and temperature not given (as in ref. 48)", "conditions": "protein: recombinant; tags: GST (pGEX6p-1); label: digoxigenin; blunt (reverse complement stated)"}
{"binder": "B1", "binding result": "binds"}
{"binder": "B2", "binding result": "binds"}
{"binder": "B3", "binding result": "binds"}
